The source of these data is patent publication US20220213193A1 (BROWN UNIVERSITY, published 2022).

This test has as its target T1, recombinant human (rh) CHI3L1 (human, UniProt P36222 22-383).
T1 construct: also called rhCHI311; human CHI3L1
Put plainly: competitive ELISA on recombinant antigen. Background: An ELISA detects its analyte on a solid surface through an enzyme-linked reagent.

As usually defined, the Kd is the free concentration of one partner at which half of the binding sites on the other are occupied at equilibrium, for simple one-to-one binding.

T1 sequence (P36222 22-383 limits assumed): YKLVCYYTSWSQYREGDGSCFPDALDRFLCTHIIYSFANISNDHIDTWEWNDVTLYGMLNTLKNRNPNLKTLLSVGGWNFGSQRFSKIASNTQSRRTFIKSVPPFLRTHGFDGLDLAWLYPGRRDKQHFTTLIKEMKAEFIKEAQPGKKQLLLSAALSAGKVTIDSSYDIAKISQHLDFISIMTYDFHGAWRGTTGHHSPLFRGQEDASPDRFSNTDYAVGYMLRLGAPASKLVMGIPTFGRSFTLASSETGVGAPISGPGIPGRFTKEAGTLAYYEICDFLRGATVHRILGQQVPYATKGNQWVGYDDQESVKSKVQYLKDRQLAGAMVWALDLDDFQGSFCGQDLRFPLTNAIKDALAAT

B1: anti-human CHI3L1 antibody FRG (antibody, V domains shown)
VH: QIQLVQSGPELKKPGETVKISCKASGYTFTNYGMNWVKQAPGKGLKWMGWINTYTGEPTYADDFKGRFAFSLETSASTAYLQINNLRNEDMSTYFCARLGYGKFYVMDYWGQGTSVTVSS
VL: DVVMTQTPLSLPVSLGDQASISCRSSQSLVHSNGNTYLHWYLQKPGQSPKLLIYKVSNRFSGVPDRFSGSGSGTDFTLKISRVEAEDLGVYFCSQSTHVTWTFGGGTKLEIK
notes: also called anti-CHI3L1; α-CHI3L1
On to B1, for which the dissociation constant (Kd) was around 1 nM.
